Experimental data as given in a protein production outcome set (Wang et al. 2014).

Assay: label from the status in PepcDB records
For “MTKGSRKSRRRQQAPTKARPEQGRSAPAQRPAPTFRLRTAALLAIGSGALFFLLASGLSWFKTSEISSPPTREAELSFVGSQACSGCHQAETRLWQSSQHRHAMDHATDTSVRGDFNDAAFEYAGTRSRFFRKDRKFLIETDGPDGKLATFEVKYAFGVDPLQQYLIEFPDGRIQALSIAWDTRPKDQGGQRWFHLYPDAAVTSSDPLHWTRLNQNWNFMCAECHSTNVHKNYDAARDRFATSFSEISVGCEACHGAGSRHVSWAQQKPAARGPDNGLLVRFDERSGITWSADAETMTPKRSAPPATLRKEVEVCGRCHARRGQFSEDWRPGKSLSETHRVSLLDRQSFHADGQMRDDEETYNYASFKQSKMFAKGVTCSDCHDPHSAALKAPGDGVCAQCHAPAKYEAAAHRQHANVSPPPGCASCHMPERRYMVVDRRHDHGFRIPRPDLSVQLGTPNACNDCHRDKPAAWAARQVETWFGPQRLGFQAYARAFHAAWSEAADAQALLSAVVANDAPGIVRAGALAELPAPDADLIRRALSDPDPLVRLGALDALEGIPADQLWTLASAQLTDPVRGVRIRAAELLASVPPSRQPAADRNKFTQAAAEFVAAQKLNADRPDARAALGNFLARQAGAAEAEAEYRAALRLDPSFPPAAINLSDLYRQLGRDSDGERILRETLTKSGQNASLHHALGLVLVREKRADEALGELRQAAELDPGQPRYAYVYAVGLHSSGRRDDALAVLRTSLQVHPNDRESVSAALALSREKGDSASALGYAEQLSRLMPGNREIEDLIKQLKQ”, the protein production was “failed”. For “MTKIIPVASGKGGVGKTSFVANVGYKLSSLGKTVILVDLDLGGSNLHTCLGVKNKGVGIGSFINKKSKSFSDLVCKTSYDKLYLIPGDALYTGTANLPFSIKKKIIESIQKDLIADFIFLDLGSGTSYNTIDFYLASYSGVIVTIPETPSILNAYSFLKNALYRLLYLGFPQKSPERDYIGNFFKDKIEGTNLGFKDLVVGIELISLSSSLKVKRMMNNFYPRVVLNRIETSEEIAMCENLINVVKNNINIPIEFIGFVPFAKSFREAINNRVPFIDFEKNSKLNKYFEFIAGNLIKSP”, the protein production was “failed”. For “MTKIYFAGPLFSQADLRYNAYLVEQIRQLDKTIDLYLPQENAAINDKSAYADSKMIALADTENVLASDLLVALLDGPTIDAGVASEIGVAYAKGIPVVALYTDSRQQGADNHQKLDALNEIAENQFHYLNLYTVGLIKLNGRVVSSEEDLLEEIKQRLS”, the protein production was “not failed”. With “MTKKLNPLEDPPTATSSDEDDVETSEAGEASDDSSSSEEDVPIKIRIKSPSATTAAAPPAKSTAVSTAADSDSGSETETDSDSESTNPPNSGSGKTIALNTVNLKKKEDPTSSSATLALPAMKSGTKRPASEAAATTSTKRVKKDEESVKKPGGFQRLWSEEDEILVLQGMIDFKADTGKSPYVDTNAFYDFLKKSISFEVSKNQFMDKIRSLRKKYIGKEGRNEPSFVKAHDKKAFELSKFIWGPKGIALDSNVKSNGVSKKSVAKKKIDSVKQELVFAGGSSTNGKKVEEDGGDDGCDWFDNSSLVRMIASLGVDEYYVKQQWSLVSVESKKIVEEKYKLLQAKELEFVLEKTKFLNEVASMFVEASKNKPLDT” the protein production was “failed”. With “MTKLALFVRLEAKPGQEAALADFLASALPLANAESGTTAWFALKFGPSTFGVFDAFADEAGRQAHLNGQIAAALMANAATLLSSPPNIEKVELLAAKLPA” the protein production was “not failed”. For “MTKNPRTLYEKIWDAHIVERREDGSALIYIDRHLVHEVTSPQAFEALRQAGRPLRRPDRTLAVPDHNVPTTARVDSEGHLLPIADPQSAKQLAALAKNAPEFGVRYISATDPEQGIVHVVGPEQGFTLPGTTLVCGDSHTAAHGALGALAFGIGTSEVEHVMATQTLILTPAKTMEVRVEGKLSPDVSAKDLILHIIHSLGTAGGTGYAIEYTGEAIRNLSIEERLTVSNMSIEAGARTGLIAADEKTFAYLFGRPMAPKGADWEKAVQWWKSLATDKGAVYDKTVIIKAEDVQPSVTWGTSPEDVVPITGVVPDPASFADPAKQAAARRSLEYMGLEPGQKMEGLAVENVFIGSCTNSRIEDLRAAASVVWGRHVADNVKQALVVPGSGLVKRQAEAEGLDEVFKAAGFEWREPGCSMCLAMNPDKVPAGERCASTSNRNFVGRQGPGARTHLVSPAMAAAAAVTGHLTDLRHLEPVKMGEKA”, the protein production was “failed”. In the case of “MTKQKSKPVEYHPFPQLVLTLDVRRSFTPTFLRQILQTRSFACVILYDSQGVQDDAVFLQKQAQIYAEDIQSNGAAFLISGERRVSERIKADGLHIEGDLKALEYCDYQKKEQKIIGFGNIRNRHCAMVAGEAGVDYLLFGKLGADKKPHAHPRNLQLARWWAEIMETPAIVQAGSDFATFDEVIKTACEFIAIEEVIFAHDNPLMLLKMMQEKCKNSPL”, the protein production was “failed”. For “MTKRVTCSACDGFGAEGGETGMVSCNSCEGNGFILKNQRSIFGTVQSQMLCQSCGGQGKQALEHHHHHH”, the protein production was “failed”. In the case of “MTKSELIEQLCSKKPQLSAKQVEDTVKEILEQMATTLEGGDRIEIRGFGSFSLHYREPRLGRNPKTGDKVELDGKFVPHFKPGKELRERVNYS”, the protein production was “failed”. With “MTKSVDTLLIPGPIILSGAVQKALDVPSLGHTSPEFVSIFQRVLKNTRAVFKSAAASKSQPFVLAGSGTLGWDIFASNFILSKAPNKNVLVVSTGTFSDRFADCLRSYGAQVDVVRPLKIGESVPLELITEKLSQNSYGAVTVTHVDTSTAVLSDLKAISQAIKQTSPETFFVVDAVCSIGCEEFEFDEWGVDFALTASQKAIGAPAGLSISLCSSRFMDYALNDSKNGHVHGYFSSLRRWTPIMENYEAGKGAYFATPPVQLINSLDVALKEILEEGLHKRWDLHREMSDWFKDSLVNGLQLTSVSRYPSNMSAHGLTAVYVADPPDVIAFLKSHGVVIAGGIHKDIGPKYIRIGHMGVTACNKNLPYMKNCFDLIKLALQRKK” the protein production was “not failed”. For “MTLFDGTPFEWAPGRIEVRARRECGASRKSLVVAAGVSYLARMIFSFDAFVTNALFDRSGRAMFALGDGTVRLQTDEGFVTVEAHGGPLGGAVLAAAVHPSGAGIVTGGDDGRVVWSRIEGGEVVATLIAEVKNKWIEHVAASAASGLIAFTVGKEVHVRDAADPAFARTFPHEKTVSGLAFEPKGRRLASATYGGAYLWYARIADQKPTVLKWAGSHIAVEFSPDGKFLISSMQENQLHGWRLSDGKDMRMGGYPSKIKSVAFFDKGNLLATAGASGAVIWPFAGANGPMGKEAAEIGFSRDSMVVRVAGIDPQPVCIAGQDSGKIWAAHMRNGRIETLKAEKGAPISALSVSADGKRLAWGDESGEAGVLEIPDLSGPRQFVGLEHHHHHH”, the protein production was “failed”. In the case of “MTLGTNQVSKTHSFMTVSLIELWERFGYYGMQALIVYFMVQRLGFDDSRANLVWSACAALIYVSPAIGGWVGDKILGTKRTMLLGAGILSVGYALMTVPTENTWFMFSALGVIVVGNGLFKPNAGNLVRKIYEGDDSKIDSAFTIYYMAVNVGSTFSMLLTPWIKDYVNAQYGNEFGWHAAFAVCCVGILVGLGNYALMHKSLANYGSEPDTRPVNKKSLAIVLALAALSVVASAIILEYEDVARVFVYAAGVAVLGIFFHLIRTSEPSERAGLIAALILTVQTVFFFIFYQQMSTSLALFALRNVDWDFQVFGTHLWTWSPAQFQALNPIWIMVLSPVLAWSYSWAGRNNKDFSIAAKFALGFAVVAIGFFIYGFAGQFAVNGKTSSWVMIWGYASYSLGELLVSGLGLAMIARYVPARMGGFMMGAYFVASGISQYLGGVVANFASVPQDLVDPLQTLPVYTNLFNKLGVAAVVCTIIALAVLPLMRRLTESHHAHSSIENNAAASLRDVKAEQ”, the protein production was “failed”. With “MTLIRWNPWQDLNTLQRQLNHLFEEDMLPSTLLERTLTRVPAAELHETAEVIYLKLELPGIDAKDVDLQVTDKAVYISGERKSETKTEDKGVFKSEFQYGKFQRVIPLPARIQNTNVTAEYKDGILNLTLPKAEVEKNKVVKINIESAAGLEHHHHHH” the protein production was “not failed”. For “MTLKGTAERWGWMSQALHWLIAVLILGLGIGGLIMGKLPKTPNYFWVYTAHKSIGISVLALAVLRLFWRLYAGAPKPIAGTPVWQERVANATHIMLYVLIFTIPLAGWLYDSARGLRTFYWFGLFEMPALVSPNETIRGVALEIHKLSFWALIGLVVLHAGAAFHHHLIQRDATLARMLPRNWFSSKS”, the protein production was “failed”. For “MTLKPTQQRLLLMLGWLHLQCGQPRRAQVLLEALLSVAPERRDGRRALLLALLQQGLGEPAVRLCRQLQEDGEEEPGLWRCLSRAEQLAGRLDAARAAHARALELEARELEHHHHHH”, the protein production was “not failed”. For “MTLLQQIMWGSLYLGLCFVVEVLLLVWCTLVIVHLSIRLRHLSRAMRTAAVISVSLAFIVLAHTLQVWLWAGVWIWSDVLTDWNEALYFSLVTYTTLGYGDIVLGPGLRIFAAFAAVAGLLAFGLSTAYLVALMSRVFEGRLPR”, the protein production was “failed”. In the case of “MTLMVPFKQVDVFTEKPFMGNPVAVINFLEIDENEVSQEELQAIANWTNLSETTFLFKPSDKKYDYKLRIFTPRSELPFAGHPTIGSCKAFLEFTKNTTATSLVQECKIGAVPITINEGLISFKAPMADYESISSEMIADYEKAIGLKFIKPPALLHTGPEWIVALVEDAETCFNANPNFAMLAHQTKQNDHVGIILAGPKKEAAIKNSYEMRAFAPVINVYEDPVCGSGSVALARYLQEVYKFEKTTDITISEGGRLKRNGLMLASIKKEADNSTSYYIAGHATTVIDGKIKV”, the protein production was “not failed”. For “MTLSITSNFDAGAIDVVSCERADAIRLRVRGDNRSEFAQWFYFRLTGARGERCVMTFENANDCAYPAGWRDYRAVASYDRVNWFRVPTSYDGQMLTIDHTPEFDSIHYAYFEPYSEERHSEFLGAVQQMPQASVVELGRTVEGRPMSLVVLGTPDEAGAAKKKVWIIARQHPGESMAEWFIEGLVKRLVGWGDWSGDPVARKLYDHATFYIVPNMNPDGSVHGNLRTNAAGANLNREWMEPDAERSPEVLVVRDAIHAIGCDLFFDIHGDEDLPYVFAAGSEMLPGFTEQQRVEQSAFIDSFKRASPDFQDEHGYPPGKYREDAFKLASKYIGHRFGCLSLTLEMPFKDNANLPDEHIGWNGARSASLGAAMLGAILEHVRAFA”, the protein production was “not failed”. In the case of “MTLSPNLRGALWMLASAVGFTVMTTLIKFLGDDYPAALQTFYRQLAGVLVLLPLIARDWRGAFRTTRPGIVIFRSSAGVLALIMSFYAYQKLPLADANALSFTRTLWLVPLAGLVLREPIGPRRISAALVGFVGVLIMLQPGAGGVEAWLGWPQLCALGAAFLFALTITGMKVMTRDHTPFVLLVYAAVLGLVFAIPPALFVWRWPTWPDLGLLAAMGVIGTLTQGAYIKGMEAGEAAVMAPVDYTRLVFAVIVGFLLFQEVPRTATVVGAVIVVGSTLFISWREHQLAKQAAAEPT”, the protein production was “failed”. In the case of “MTLTEQPQRIAILHSLYLEYFLALGTPPIASAGASTGDAMKALGEWETLKPYAGTAKIIDLGSARDLNLEAILGANPDVIVTFKGQGNLDKIYEQLEQIAPVILVDFSAPWQEQILACAEIVNKEADAQKLIKEIEDSVQSAKEKLSRLEHHHHHH”, the protein production was “failed”. For “MTLTLNRQLLTSRQILVAFSGGLDSTVLLHQLVQWRTENPGVALRAIHVHHGLSANADAWVTHCENVCQQWQVPLVVERVQLAQEGLGIEAQARQARYQAFARTLLPGEVLVTAQHLDDQCETFLLALKRGSGPAGLSAMAEVSEFAGTRLIRPLLARTRGELVQWARQYDLRWIEDESNQDDSYDRNFLRLRVVPLLQQRWPHFAEATARSAALCAEQESLLDELLADDLAHCQSPQGTLQIVPMLAMSDARRAAIIRRWLAGQNAPMPSRDALVRIWQEVALAREDASPCLRLGAFEIRRYQSQLWWIKSVTGQSENIVPWQTWLQPLELPAGLGSVQLNAGGDIRPPRADEAVSVRFKAPGLLHIVGRNGGRKLKKIWQELGVPPWLRDTTPLLFYGETLIAAAGVFVTQEGVAEGENGVSFVWQKTLS”, the protein production was “not failed”.
